Assay results published in patent US20070022484A1 (published 2007).

Biological target: C-terminal sRL91 (N-terminal SH2 domain SH2n of p85 subunit of bovine phosphatidylinositol 3-kinase fused … (bovine (SH2n part)))
Test: cell-based or functional assay

Chain of C-terminal sRL91 (N-terminal SH2 domain SH2n of p85 subunit of bovine phosphatidylinositol 3-kinase fused … (bovine (SH2n part))) (chain, as listed by the source limits assumed): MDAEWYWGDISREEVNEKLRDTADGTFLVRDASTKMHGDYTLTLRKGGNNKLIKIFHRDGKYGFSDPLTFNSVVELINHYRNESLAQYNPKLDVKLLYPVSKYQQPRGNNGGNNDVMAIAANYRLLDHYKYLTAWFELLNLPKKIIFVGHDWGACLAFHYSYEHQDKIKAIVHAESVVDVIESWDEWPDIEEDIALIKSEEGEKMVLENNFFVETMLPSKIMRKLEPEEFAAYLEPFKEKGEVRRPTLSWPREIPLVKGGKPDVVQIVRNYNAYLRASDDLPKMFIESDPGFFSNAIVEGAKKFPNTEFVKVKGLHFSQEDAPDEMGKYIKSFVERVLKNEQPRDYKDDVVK

luminescence activity with 10^-7 M insulin against its absence (split Renilla luciferase complementation, CHO-HIR cells expressing sRL91): 25 fold
B1: N-terminal sRL91 (N-split Renilla luciferase hRLn, split between Ser91 and Tyr92, fused through a linker to Y941 peptide, with Myc epitope) (other, not shown: small tags and cut ends)
chain: MTSKVYDPEQRKRMITGPQWWARCKQMNVLDSFINYYDSEKHAENAVIFLHGNAASSYLWRHVVPHIEPVARCIIPDLIGMGKSGKSGNGSCLSLASNNGNGRNGASLETEEAYMKMDLGPG
modifications: the 941-tyrosine residue of the Y941 peptide is phosphorylated by the insulin receptor upon insulin stimulation
